In series [1] the test system is AceMYBS1 (Actinidia eriantha). Kind of series: cell_activity. Particulars: dual-luciferase, tobacco leaves.
Series [2] relates to AceMYBS1 + AceGBF3 (Actinidia eriantha). As to the kind of experiment: cell_activity. The conditions noted are these: dual-luciferase, co-expression.

For AceGGP3 promoter (2.6 kb, P2660), the activity in series [1] came to 3.74 fold; in series [2], 6.67 fold.
